In publication doi:10.1101/2020.11.13.381533 (bioRxiv, 2020):
Substitutions are numbered along the chain they refer to. Numbers in names are those of the source.

B1: C1A-B3 Fab (Fab, V domains shown)
VH: EVQLVESGGGLIQPGGSLRLSCAASGFTVSSNYMSWVRQAPGKGLEWVSVIYSGGTTYYADSVKGRFTISRDNSKNTVFLQMNSLRAEDTAVYYCARGDVSGYRYGLDYWGQGTLVTVS
VL: DIQLTQSPSSLSASVGDRVTITCRASQGISSYLAWYQQKPGKAPKLLIYAASTLQSGVPSRFSGSGSGTDFTLTISSLQPEDFATYYCQQLNSYPGTFGQGTKLEIK
B2: C1A-F10 Fab (Fab, V domains shown)
VH: B1 VH with V78L, F79Y
VL: B1 VL with Q55E, S56N
B3: C1A-C2 Fab (Fab, V domains shown)
VH: B1 VH with A24V, S31N, V78L, F79Y
VL: B1 VL with S14F, Q27E, K42N, Q55E

molecular target: SARS-CoV-2 S receptor-binding domain (RBD), construct for crystallography (SARS-CoV-2, GenBank QHD43416.1 …, UniProt P0DTC2); test: crystal structure

Binder | binding result
B1 | binds
B2 | binds
B3 | binds
